Target: Tulane virus (TV) virions, CsCl gradient-purified (Tulane virus)

Substance: Maackia amurensis leukoagglutinin (MAL), biotinylated (from UniProt P0DKL3 30-278) (natural protein)
- TV infectivity in LLC-MK2 cells by plaque assay after treatment with MAL (dose series up to 100 μg/mL; maximum enhancement at 50 μg/mL), percent of the untreated control: 262%
